Read-outs that look alike come from different tables or passages of the source.

The values below come from publication PMC3418449.

Series [1] has as its target T1, GRK2 (S670A), flow cytometry and crystallography (bovine, UniProt P21146 1-689, S670A). The series can be described thus: competition.
Series [2] concerns the target GRK2-H280A, flow cytometry (UniProt P21146 1-689, H280A). The series can be described thus: flow cytometry bead binding. In general terms: A flow cytometer gives signals particle by particle.
Series [3] addresses GRK2-D335A, flow cytometry (UniProt P21146 1-689, D335A). The series can be described thus: flow cytometry bead binding.
Series [4] has as its target T1, GRK2 (S670A), flow cytometry and …. In words: competition. This is another data set of the same source.
Series [5] shares this target. The series can be described thus: flow cytometry bead binding.
Series [6] has as its target T2, GRK1 truncated at residue 535 (bovine, UniProt P28327 1-535).
T2 sequence: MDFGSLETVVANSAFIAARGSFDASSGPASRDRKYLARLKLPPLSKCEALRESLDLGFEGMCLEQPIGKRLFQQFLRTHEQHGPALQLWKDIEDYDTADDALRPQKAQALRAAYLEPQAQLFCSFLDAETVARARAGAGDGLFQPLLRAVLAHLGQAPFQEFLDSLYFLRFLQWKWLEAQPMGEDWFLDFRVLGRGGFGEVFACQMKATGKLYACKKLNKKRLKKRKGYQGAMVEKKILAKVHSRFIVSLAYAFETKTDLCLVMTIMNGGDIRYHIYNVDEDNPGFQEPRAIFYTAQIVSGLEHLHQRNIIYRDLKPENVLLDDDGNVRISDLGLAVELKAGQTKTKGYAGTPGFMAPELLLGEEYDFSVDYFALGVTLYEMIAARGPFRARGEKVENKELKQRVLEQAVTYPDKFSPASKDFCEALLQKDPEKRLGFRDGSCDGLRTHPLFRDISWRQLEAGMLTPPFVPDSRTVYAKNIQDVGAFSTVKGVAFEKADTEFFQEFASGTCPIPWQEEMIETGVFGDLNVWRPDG
The series can be described thus: competition.

Series [7] concerns the target GRK6 palmitoylation-deficient (human, UniProt P43250 1-576, C561S;C562S;C565S). In words: competition.
Series [8] addresses T1, GRK2 (S670A), flow cytometry and …. In words: competition. This is another data set of the same source.
Series [9] deals with GRK2-FG-6A, flow cytometry (UniProt P21146 1-689, R392A;H394A;K395A;K397A;K399A;H400A). In words: competition.
Sequence of GRK2-FG-6A, flow cytometry (P21146 whole entry R392A/H394A/K395A/K397A/K399A/H400A): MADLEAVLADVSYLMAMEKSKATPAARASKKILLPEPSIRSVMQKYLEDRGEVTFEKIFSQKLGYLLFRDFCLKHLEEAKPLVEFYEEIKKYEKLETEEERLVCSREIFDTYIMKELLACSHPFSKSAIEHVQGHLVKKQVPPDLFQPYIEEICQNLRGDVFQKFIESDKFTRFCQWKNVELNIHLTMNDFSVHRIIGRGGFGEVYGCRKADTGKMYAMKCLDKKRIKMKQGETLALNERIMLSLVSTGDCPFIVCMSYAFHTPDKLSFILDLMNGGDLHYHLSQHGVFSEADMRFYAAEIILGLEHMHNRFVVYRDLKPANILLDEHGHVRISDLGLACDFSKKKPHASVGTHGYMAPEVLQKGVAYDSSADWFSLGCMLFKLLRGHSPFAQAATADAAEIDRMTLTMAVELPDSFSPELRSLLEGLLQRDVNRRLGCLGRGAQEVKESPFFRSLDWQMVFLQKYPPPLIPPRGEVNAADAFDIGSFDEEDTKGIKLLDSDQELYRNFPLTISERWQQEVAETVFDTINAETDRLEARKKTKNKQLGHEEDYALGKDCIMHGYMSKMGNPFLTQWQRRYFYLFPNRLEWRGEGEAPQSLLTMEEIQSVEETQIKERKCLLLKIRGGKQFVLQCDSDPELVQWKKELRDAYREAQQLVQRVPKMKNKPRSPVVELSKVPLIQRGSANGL
In series [10] the target is T1, GRK2 (S670A), flow cytometry and …. The series can be described thus: flow cytometry bead binding. This is another data set of the same source.
For series [11] the target is unchanged. The series can be described thus: competition. The source holds these as a separate data set.
Series [12] shares this target. The series can be described thus: flow cytometry bead binding. This is another data set of the same source.

T1 sequence (P21146 whole entry S670A): as the sequence (P21146 whole entry R392A/H394A/K395A/K397A/K399A/H400A) above, with A392R, A394H, A395K, A397K, A399K, A400H, S670A counted along it
Sequence of GRK2-H280A, flow cytometry (P21146 whole entry H280A): as the sequence (P21146 whole entry R392A/H394A/K395A/K397A/K399A/H400A) above, with H280A, A392R, A394H, A395K, A397K, A399K, A400H counted along it
Sequence of GRK6 palmitoylation-deficient (P43250 whole entry C561S/C562S/C565S): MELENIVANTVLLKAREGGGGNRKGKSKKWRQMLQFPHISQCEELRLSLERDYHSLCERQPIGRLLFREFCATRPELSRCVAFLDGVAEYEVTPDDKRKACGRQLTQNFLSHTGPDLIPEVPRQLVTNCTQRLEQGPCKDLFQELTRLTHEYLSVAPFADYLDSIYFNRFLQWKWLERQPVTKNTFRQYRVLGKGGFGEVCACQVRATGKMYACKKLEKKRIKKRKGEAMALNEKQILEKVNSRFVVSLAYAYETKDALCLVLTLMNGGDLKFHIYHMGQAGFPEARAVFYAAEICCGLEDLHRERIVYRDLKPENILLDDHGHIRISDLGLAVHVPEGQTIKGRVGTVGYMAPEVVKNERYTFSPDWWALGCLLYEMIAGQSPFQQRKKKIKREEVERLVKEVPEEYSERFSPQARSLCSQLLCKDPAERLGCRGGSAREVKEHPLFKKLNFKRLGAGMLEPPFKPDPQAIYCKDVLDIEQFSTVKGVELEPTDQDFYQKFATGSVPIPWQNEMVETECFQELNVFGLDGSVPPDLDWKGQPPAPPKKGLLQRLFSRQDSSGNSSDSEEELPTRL
Sequence of GRK2-D335A, flow cytometry (P21146 whole entry D335A): as the sequence (P21146 whole entry R392A/H394A/K395A/K397A/K399A/H400A) above, with D335A, A392R, A394H, A395K, A397K, A399K, A400H counted along it

B1: C13.29 (structured_RNA)
RNA: GGGCAGACCAUACGGGAGAGAAACUUGCC
Take B1: the IC50 in series [1] came to 0.91 ± 0.07 nM.

B2: C13.28 (ssRNA)
RNA: GGCAGACCAUACGGGAGAGAAACUUGCC
Consider B2, for which the IC50 turned out to be 1.5 ± 0.1 nM in series [1]; 0.44 ± 0.19 nM in [4]; 590 ± 160 nM in [6]; 210 ± 10 nM in series [7]; 3.3 ± 0.3 nM in series [8]; 510 ± 170 nM in [9]. Besides, the binding result in series [2] and in series [3] was “binds” throughout. Also, the Kd in series [5] was found to be 3.8 ± 1.2 nM; in series [10], 1.2 ± 0.6 nM.

B3: C13.22 (structured_RNA)
RNA: AGACCAUACGGGAGAGAAACUU
Molecule B3 displayed an IC50 in [1] of 46 ± 9 nM.

B4: C13.28A51C (structured_RNA)
RNA: GGCAGACCAUCCGGGAGAGAAACUUGCC
With B4, the binding result in series [11] is given as “no binding”.

B5: C13.40 (structured_RNA)
RNA: GGGUAGCACAGACCAUACGGGAGAGAAACUUGUGCAACCC
Molecule B5 returned an IC50 in [1] of 1.3 ± 0.1 nM.

B6: C13.18 (ssRNA)
RNA: CCAUACGGGAGAGAAACU
Regarding B6, the Kd in series [12] stood at 35 ± 5 nM. In addition, the IC50 in series [4] turned out to be 100 ± 41 nM.

B7: C13.26 (structured_RNA)
RNA: GGCGACCAUACGGGAGAGAAACUGCC
In the case of B7, the IC50 in [1] worked out at 0.9 ± 0.03 nM.

For orientation: IC50 means the point on the concentration scale where inhibition reaches its midpoint. A higher IC50 goes with lower potency. As usually defined, the Kd is the equilibrium constant for the complex coming apart. A higher Kd goes with weaker binding.
